Experimental findings from patent US20030207290A1 are described below.

Several values for one entry are separate records, joined by “and”; a condition that tells them apart may be missing. Equal entries are not always repeated. Where two headings read alike, the source gives them in different places.

Test [1] concerns the target IkBa phosphopeptide (IkBa-24pp), …(p)SGLD(p)SMKDEEYC
Briefly: ECL plate binding assay: peptide-BSA on electrode, biotinylated TnT protein, Sulfo-TAG streptavidin.

In test [2] the target is c-Myc phosphopeptide (Myc-p58Tp62S), …(p)TPPL(p)SPSRRSGL
The description is as above.

The target of test [3] is EGFR-pY1148 phosphopeptide, …(p)…. Briefly: ECL 4-spot multi-array binding assay: peptide-BSA spot, biotinylated TnT protein, Sulfo-TAG streptavidin.
Test [4] has as its target IkBa phosphopeptide (IkBa-24pp), …(p)SGLD(p)SMKDEEYC
The description is as above.

Test [5] concerns the target T1, EGFR-pY1068 phosphopeptide, LPVPE(p)….
T1 sequence (peptide, phosphotyrosine at (p)Y (residue 6 of the printed peptide; EGFR Tyr1068)): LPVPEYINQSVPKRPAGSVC
The test is described as above.

For test [6], the target named is IkBa phosphopeptide (IkBa-24pp), …(p)SGLD(p)SMKDEEYC
The test can be described thus: ECL 4-spot multi-array binding assay: peptide-BSA spot.

Test [7] deals with BSA (control coating) (UniProt P02769). Briefly: ECL plate binding assay: BSA control on electrode, biotinylated TnT protein, Sulfo-TAG streptavidin.
Test [8] deals with EGFR-pY1148 phosphopeptide, …(p)…. Briefly: ECL 7-spot plate screen, peptide-BSA spot, biotinylated TnT protein, Ru-streptavidin; signal normalized in two steps.
Test [9] addresses IkBa phosphopeptide (IkBa-24pp), …(p)SGLD(p)SMKDEEYC
The description is as above.

For test [10], the target named is c-Myc phosphopeptide (Myc-p58Tp62S), …(p)TPPL(p)SPSRRSGL
The description is as above.

The target of test [11] is EGFR-pY992 phosphopeptide, DADE(p)…. The description is as above.
For test [12], the target named is T1, EGFR-pY1068 phosphopeptide, LPVPE(p)…. The description is as above.
For test [13], the target named is phosphorylated EGFR (Sigma Chemical Co, self-phosphorylated) (UniProt P00533). Briefly: TnT protein on streptavidin plate, […] phosphorylated EGFR; bound EGFR detected by its kinase activity on pEY, 12 hr reaction.
Test [14] concerns the target EGFR-pY992 phosphopeptide, DADE(p)…. Briefly: ECL 4-spot multi-array binding assay: peptide-BSA spot, biotinylated TnT protein, Sulfo-TAG streptavidin.
Test [15] has as its target phosphorylated EGFR (Sigma Chemical Co, self-phosphorylated) (UniProt P00533). Briefly: TnT protein on streptavidin plate, […] phosphorylated EGFR; bound EGFR detected by its kinase activity on pEY, 1 hr reaction.
The target is the same in test [16]. Briefly: TnT protein on streptavidin plate, […] phosphorylated EGFR; bound EGFR detected with TAG-labeled anti-EGFR (clone 225).

Chain of EGFR-pY992 phosphopeptide, DADE(p)… (peptide, as listed by the source): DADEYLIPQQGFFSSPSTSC
Chain of c-Myc phosphopeptide (Myc-p58Tp62S), …(p)TPPL(p)SPSRRSGL (peptide, as listed by the source): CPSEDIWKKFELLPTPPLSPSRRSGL
Chain of BSA (control coating) (P02769 25-607 limits assumed): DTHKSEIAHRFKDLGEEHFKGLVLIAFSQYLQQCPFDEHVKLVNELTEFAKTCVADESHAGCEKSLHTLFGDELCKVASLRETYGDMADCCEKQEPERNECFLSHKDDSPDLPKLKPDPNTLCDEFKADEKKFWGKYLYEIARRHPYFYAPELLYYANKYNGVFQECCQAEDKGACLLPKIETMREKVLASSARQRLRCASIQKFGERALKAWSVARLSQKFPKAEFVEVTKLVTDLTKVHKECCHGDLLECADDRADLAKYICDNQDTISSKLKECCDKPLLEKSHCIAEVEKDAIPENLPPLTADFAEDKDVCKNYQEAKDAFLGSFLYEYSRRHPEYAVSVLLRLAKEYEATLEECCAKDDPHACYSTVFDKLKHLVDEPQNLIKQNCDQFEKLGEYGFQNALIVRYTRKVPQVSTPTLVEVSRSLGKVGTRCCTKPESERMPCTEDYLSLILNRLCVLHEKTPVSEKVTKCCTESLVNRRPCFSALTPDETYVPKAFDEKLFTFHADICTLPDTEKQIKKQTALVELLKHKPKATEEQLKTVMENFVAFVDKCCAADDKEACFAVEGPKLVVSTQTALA
Chain of IkBa phosphopeptide (IkBa-24pp), …(p)SGLD(p)SMKDEEYC (peptide, as listed by the source): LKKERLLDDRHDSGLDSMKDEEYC
Chain of βTRCP2 (EST clone IMAGE 4237375), in vitro translated, biotin-labelled (Q9UKB1 whole entry): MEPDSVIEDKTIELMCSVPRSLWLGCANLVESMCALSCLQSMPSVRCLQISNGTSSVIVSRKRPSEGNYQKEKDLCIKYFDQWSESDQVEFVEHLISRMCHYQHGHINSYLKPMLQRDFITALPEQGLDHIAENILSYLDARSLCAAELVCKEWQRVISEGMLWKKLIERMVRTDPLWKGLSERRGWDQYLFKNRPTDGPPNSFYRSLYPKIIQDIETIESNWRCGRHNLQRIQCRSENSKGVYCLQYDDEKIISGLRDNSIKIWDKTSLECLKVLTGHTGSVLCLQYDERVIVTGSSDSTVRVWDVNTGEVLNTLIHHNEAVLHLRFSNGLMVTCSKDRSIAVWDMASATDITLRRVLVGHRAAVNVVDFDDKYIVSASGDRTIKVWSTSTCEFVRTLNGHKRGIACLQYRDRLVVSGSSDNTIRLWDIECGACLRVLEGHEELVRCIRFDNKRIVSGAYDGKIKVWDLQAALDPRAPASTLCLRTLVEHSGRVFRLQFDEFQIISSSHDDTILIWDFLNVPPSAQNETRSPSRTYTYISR
Chain of βTRCP1 (EST clone IMAGE 3491843), in vitro translated, biotin-labelled (Q9Y297 whole entry): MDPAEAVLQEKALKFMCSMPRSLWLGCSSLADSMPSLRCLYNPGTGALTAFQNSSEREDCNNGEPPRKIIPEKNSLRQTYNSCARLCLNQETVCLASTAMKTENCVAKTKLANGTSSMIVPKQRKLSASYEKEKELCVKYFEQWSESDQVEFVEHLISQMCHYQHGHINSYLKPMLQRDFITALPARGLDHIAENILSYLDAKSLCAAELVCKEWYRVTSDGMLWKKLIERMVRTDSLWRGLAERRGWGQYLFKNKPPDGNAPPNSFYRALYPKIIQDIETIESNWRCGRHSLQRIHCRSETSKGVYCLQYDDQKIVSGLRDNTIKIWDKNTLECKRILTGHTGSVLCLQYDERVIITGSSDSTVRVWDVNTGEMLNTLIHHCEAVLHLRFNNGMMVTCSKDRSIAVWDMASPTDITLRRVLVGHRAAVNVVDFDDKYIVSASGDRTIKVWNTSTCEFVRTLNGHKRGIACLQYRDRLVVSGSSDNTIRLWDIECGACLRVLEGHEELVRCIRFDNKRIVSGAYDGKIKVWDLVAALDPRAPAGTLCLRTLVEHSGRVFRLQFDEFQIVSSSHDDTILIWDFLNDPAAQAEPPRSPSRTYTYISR

For the substance “βTRCP1 (EST clone IMAGE 3491843), in vitro translated, biotin-labelled (from UniProt Q9Y297 1-605)”, the Average ECL signal in [1] came out at 40900 ECL signal; in test [2] it was 2120 ECL signal; in test [7], 1720 ECL signal. In addition, the ECL signal was 36 ECL signal in [3], 2470 ECL signal in test [4] and 24 ECL signal in [5]. The substance also showed a fold ECL signal over TnT reaction without exogenous DNA in test [6] of 100 fold. Besides, the normalized ECL signal in [8] is 1; in [9], 12; in test [9] (positive control preparation) it was 23; in test [10], 8 and 4.

Consider “βTRCP2 (EST clone IMAGE 4237375), in vitro translated, biotin-labelled (from UniProt Q9UKB1 1-542)”, for which the Average ECL signal came out at 21500 ECL signal in [1], 896 ECL signal in test [2] and 672 ECL signal in test [7]. Besides, the ECL signal in test [3] amounted to 35 ECL signal; in test [4] it was 5040 ECL signal; in [5], 24 ECL signal. The substance further yielded a fold ECL signal over TnT reaction without exogenous DNA in test [6] of 100 fold. In addition, the normalized ECL signal in test [8] stood at 1; in test [10], 10.

Take “Shc (EST clone IMAGE 3911953), in vitro translated, biotin-labelled (from UniProt P29353 1-473)”: the normalized ECL signal in test [8] came to 3; in [11] it was 1; in [12], 1.

For “Phospholipase C gamma 1 (PLCγ) (EST clone IMAGE 4419252), in vitro translated, biotin-labelled (from UniProt P19174 1-1290) (enzyme)”, the ECL signal in test [13] worked out at 39800 ECL signal; in test [3], 110 ECL signal; in test [14], 1400 ECL signal; in [5] it was 1480 ECL signal; in test [15], 18000 ECL signal; in test [16], 30400 ECL signal. Further, the normalized ECL signal worked out at 4 in test [8], 10 in test [11] and 55 in [12].

On to “mCBP (EST clone IMAGE 3872466), in vitro translated, biotin-labelled”, for which the Average ECL signal in test [1] stood at 371 ECL signal; in test [2], 351 ECL signal; in test [7], 352 ECL signal. The ECL signal in test [3] was determined as 278 ECL signal; in test [14], 498 ECL signal; in test [4] it was 446 ECL signal; in [5], 126 ECL signal.

Take “Shc (EST clone IMAGE 3909921), in vitro translated, biotin-labelled (from UniProt P29353 1-473)”: the results for the normalized ECL signal in [8], in test [11] and in test [12] were 5, 1 and 1, respectively.

With “Shc (EST clone IMAGE 3909654), in vitro translated, biotin-labelled (from UniProt P29353 1-473)”, the normalized ECL signal in test [8] was 3; in [11] it was 1; in [12], 1.

With “Shc (EST clone IMAGE 3914467), in vitro translated, biotin-labelled (from UniProt P29353 1-473)”, the normalized ECL signal in [8] was determined as 3; in test [11], 1; in test [12], 1.
